Assay results as given in US9539225B2, “Anemia of cancer improving/prophylactic agent” (SBI Pharmaceuticals Co., Ltd., priority 2011, dated 2017).

Tested on: person suffering from chronic lymphatic leukemia (cancerous anemia)
Description: The white blood cell count, the red blood cell count, the hemoglobin, and the blood platelet count before and after treatment are shown in Table 3 below.

## Rituxan: anticancer drug used to treat chronic lymphatic leukemia
2010 Nov. 22, after one cycle of Rituxan begun Nov. 15, 2010, before ALA, 2010 Jan. 13 value 16.48
  White blood cell count: 1560 µL⁻¹
human, in vivo
  Anemia as side effect, result in words: anemia progressed as a side effect
  Blood platelet count: 101000 µL⁻¹
  Hemoglobin: 9.20 g/dL
  Red blood cell count: 2.8e+06 µL⁻¹
